We go through 16 sequences from a protein production outcome set (Wang et al. 2014).

The data set can be described thus: label from the status in PepcDB records.
Take “MKINKELYSIALVLTVLFFVFSILISSVASAAQVTRIGSGSDPAIYGNKIVWTSGGVIHLYDLTSKTGTTVSSSAASHPAIYGNKLVWHDKSSGVPRLTVYDIPSGARSYITQDVGNYSFPAIYGNRIVWSANYNRSSYSYNVYMRDISTSTQVWIAQGENPEIYETKITYGYDDDDGRNIAVYDVNTKETINVHHSSQVFNPHMYGNKVIWSNFYTRSGFIQMYDLVAKKAIDVTSDNTGNTLYGSDTIDAGDDTGTHIDISGDEIVYSKSGDDQFGYAGVYVYDIPSAKSTPVYIYPRGTHTTPDIYNDTIVWGIDSSYGGVNDTGIYICDLSVTNTLPPVAEFTANTTYGAAPLVVLFTDASTGGVPTSWIWDFGHGIDSKHVMNATHTFTKPGNYTISLTAGNDAGNNKVMKPNYIVVTNPFPVANFSSNVTHGYPPLSIQFTDLSQNATGWNWDFGDGSNSTQRSPVHEYADSGIYSVNLTAINENGTDSKLTTITVMQLVGVGPYAYITNSGDNNVSVIDTTTNKVTAMIPVGNYPMGVAVTLDGKKVYVTNFFGRTISVIDATKNKVTATIPLGNSPRGVAVSPDGKRVYVPHHEVGNPSNNTTLIIDTDTNEVEATVLVGEVPFGVAVTLDGKKVYVTNLRDKTVSVIDTATNTVIATIPVGDDPCGVAISPDGKKVYVGNRGDSTVSIIDTATNTVTATVDLENSPYGIVVNPTGTKVYVAGTKKAYAAGTVDGFVSVIDTATNKVTATIPVGNSPFGVAVTPDGSKVYVANQLRDTVSVIDTSTNKVTATMNVGRNPNSFGQFIGSLQAQPIFPVANFSSNVTEGYAPLTVKFNDMSQKATSRIWDFNGDGQLDSSNINPVYIYANPGTYTVNLTVSNKNGTDSKTAAINVLTPSSSSGVSSHSSSSGG”: the protein production entry is “failed”. Then “MKFSKFGQKFTQPTGISQLMDDLGDALKSDQPVNMLGGGNPAKIDAVNELFLETYKALGNDNDTGKANSSAIISMANYSNPQGDSAFIDALVGFFNRHYDWNLTSENIALTNGSQNAFFYLFNLFGGAFVNEHSQDKESKSVDKSILLPLTPEYIGYSDVHVEGQHFAAVLPHIDEVTHDGEEGFFKYRVDFEALENLPALKEGRIGAICCSRPTNPTGNVLTDEEMAHLAEIAKRYDIPLIIDNAYGMPFPNIIYSDAHLNWDNNTILCFSLSKIGLPGMRTGIIVADAKVIEAVSAMNAVVNLAPTRFGAAIATPLVANDRIKQLSDNEIKPFYQKQATLAVKLLKQALGDYPLMIHKPEGAIFLWLWFKDLPISTLDLYERLKAKGTLIVPSEYFFPGVDVSDYQHAHECIRMSIAADEQTLIDGIKVIGEVVRELYDNK”, with “not failed”. Then “MSSWRPAVRTDTGWPLIRRTARCHMLRNPKNAGWCRSSAATASWRSCTVPRASAWPTSRTAVPRPMVGYQCGQVFRACCVKSQETGDLDVGGLQETDKIIEVEEEQEDPYLNDRCRGGGPCKQQCRDTGDEVVCSCFVGYQLLSDGVSCEDVNECITGSHSCRLGESCINTVGSFRCQRDSSCGTGYELTEDNSCKDIDECESGIHNCLPDFICQNTLGSFRCRPKLQCKSGFIQDALGNCIDINECLSISAPCPIGHTCINTEGSYTCQKNVPNCGRGYHLNEEGTRCVDVDECAPPAEPCGKGHRCVNSPGSFRCECKTGYYFDGISRMCVDVNECQRYPGRLCGHKCENTLGSYLCSCSVGFRLSVDGRSCEDINECSSSPCSQECANVYGSYQCYCRRGYQLSDVDGVTCEDIDECALPTGGHICSYRCINIPGSFQCSCPSSGYRLAPNGRNCQDIDECVTGIHNCSINETCFNIQGGFRCLAFECPENYRRSAATLQQEKTDTVRCIKSCRPNDVTCVFDPVHTISHTVISLPTFREFTRPEEIIFLRAITPPHPASQANIIFDITEGNLRDSFDIIKRYMDGMTVGVVRQVRPIVGPFHAVLKLEMNYVVGGVVSHRNVVNVHIFVSEYWF”, with “failed”. For “MGGCPVRKRRRNGSKEGNHHSTQPKRNKRNPIFQDSQDTEFSWSDNERSSSRINIPERASGPEGNLNQIVTEPDANFPQFLHEGLSKPVYVINWFMSFGPEIKLNTSQQGRNQAV”, the protein production entry is recorded as “failed”. Then “MAQADTPAPVARLPRRRGIELALILMAVLLSVFGYCNVGLAQHDALPPGAAGYGAGLGVLALLAHLAVRLRAPYADPLLLPIGVLLNGLGLVLIYRLDLETPGDRAAPTQLVWSTLGVALFIVVVLLLRDHRVLQRYAYVCVAAALALLTVPIFFPAVNGARIWIRIEGFSIQPGEFAKVLLAVFFAAYLAANRSALAYAGRRVWRLQLPTGRVLGPILAVWLVSVGVLVLERDLGTSLLFFGLFVVLLYVATGRTGWIAVGLLLASLGAVAVGWLEPHVHSRVEDWLHPFASIEAGHGPNQLAQSLFAFAAGGVTGTGLGLGHSVLIGFAVKSDFILATAGEELGFLGLSAVFLLYGLLVERGYRAGLGARDPFGRLLAVGLSSIVALQVFVIAGGVTGLIPLTGMAMPFLAQGGSSVVTNWAIVALLIRVSHAARSQAGGRAEP”, with “failed”; and “MGHHHHHHSHMTENDLASLFNNSALFKALGFNIIEINDDAIVMEINDDNPCHQGGFGVLTSLGINGAVISAALESAIGLCGFNALGREPAGVVELSVKILRVIRKKPCRVEARVDNKNNNVAFISATLISARGGICATGTGIVLKSKTTEATQ”, with “not failed”. Then “MDIMNVYKRGNTFQYDFYFKGKRYRKSGYLTKRDAQIAMNIKLNDLLEGYDTDNNLTFVDFYYRWLEITKLDIINDTSYKRYITAIKAFKDCFGNKLISDIDSLSYQKFLKDYGRGHFLNNGQLRPRTSNTVSKMNNCLKQAFESAVEQGYIKKNPAKNAKPFGLKSSQSIDDKFMSITQMKNLIHYVKKNDALSHLCIYILIITGSRFKPVQHLRYEDLNFKKSCIHLNDTKNKYSKRNVKVRIKDLEYIQSVINKHPINQNGYIFHNFINFISYSAINDVLVRFCLKYKYDKYTLKSLRHTHCSYLLAKGISIQYISKRLGHADIHTTLKIYSHLIKEFEDSENSLIEKNLNDLFSD”, with “failed”. Then “MSAVKSVSSFRLASLLRRENDPSAAMKLFRNPDPESTNPKRPFRYSLLCYDIIITKLGGSKMFDELDQVLLHLKTDTRIVPTEIIFCNVINFFGRGKLPSRALHMFDEMPQYRCQRTVKSLNSLLSALLKCGELEKMKERLSSIDEFGKPDACTYNILIHGCSQSGCFDDALKLFDEMVKKKVKPTGVTFGTLIHGLCKDSRVKEALKMKHDMLKVYGVRPTVHIYASLIKALCQIGELSFAFKLKDEAYEGKIKVDAAIYSTLISSLIKAGRSNEVSMILEEMSEKGCKPDTVTYNVLINGFCVENDSESANRVLDEMVEKGLKPDVISYNMILGVFFRIKKWEEATYLFEDMPRRGCSPDTLSYRIVFDGLCEGLQFEEAAVILDEMLFKGYKPRRDRLEGFLQKLCESGKLEILSKVISSLHRGIAGDADVWSVMIPTMCKEPVISDSIDLLLNTVKEDGPLSAMPQC”, with “failed”; and “MELIVPILAAAYLAVLLVKTAAALWVVRGERLRPARSAVATPADVAILQPILGGDAHLQEVLAANVQALPQAQFIWLLDTDDGPGNAAADAVVAQYPQLRIARMLVPPAPPGINPKAWKLDYALPHIDAPVSLILDDDAHLGDRALSQLLLDLAHADVVTALPYYRDSATLAGRLLAQFVNNNAALTYLGWLPFAAPLTINGMCYAARTEQLRRWGGFTALLEQLTDDLAFATLVRDRGGRLWQSTAPVAMRTDMPDLRGYVRQMHRWMLFASILLGRQRLRVRSAIGVLQGLPPVLLLAMLVCACVQHTWPAALCVLIVLLARALLLCGVQWRVTGAVRHRLLLSLCAECLQPLHLLHAALVRTIRWRTRRYRVLPDGCFRAE”, with “failed”. For “MISNEEMKSGNILNLFCKFALPAVVGVLIAGIQGIIDGFFIGNAIGSHGLAGITLAYPPYLAIIAAGIIIGIGSSSLIALRLGEGKTGEALEIMNNAFPLCLIAGAVFTAGGLIFCRTSISLLGTNGPALSLASEYLHIIFAGSVFMILAIALDPLVRNNGKPRLCMKIMVAGVLANIILDYLLVMHMEMGMSGAATATVLSFVLPAVLLTHHLLSSQAKLRLRIKSMRVKTATALKILNAGVPSFVMQMSFALMLFVQNYMLLRYGSELAVSAYGVIGYIFSIFYMLFEGIALGVQPIIGFNYGAGNYGRVLKTLKLTILSCTLIGALGFTLIYLFPESLVQIFSQRDSELLDATLQGMDIFMFSLLVEGTVLLTAVYYQSINRVRAALFIHLGKIFIFLFPLLFILPHFFDLNGVWAASPATEYLMAAVVMVMLSKEFDFLRNSRKVEIKQPVTLKITSEVTSKHETSASRNTVKTGNEECTGFIPFKHTEREAS”, the protein production entry was “failed”.

Take “MSLPPSRPETLSIPEALHRAHAHWSAGQAAQAELLCQRVLAAWPGQADALHLLGLMAHAYGHLDLAIAHLRQACLAPRAPAAYSSNLAEMYRQKGLLAEAEDAARRAVAMDPALVSGWNNLGIVLQEAGKFAESLDCLERVILLQPDGAQAHNNLANTLRRLERLERAESHYRQALELDPAYAEAHSNLAFLLSAQGRHDEAAAAAQHAIELSPRLVDAYLNLAEAEMGRHRHEAALRVLDTLSTFAPQHPAALTARANVLKRVERLDEALAVARQAVVLAPRSAEAHHALAMALQTLGQTDEALPHFEQAARLPGAVAEEALVGRATLLMEAGRRDAARAAFDQALEQFPGSVQALAGRADARTFTAGDPDIAALEACLAEGERRSLRDRISAHFALGKAYLDLQDPARAFHHLDAGNRQKRSTFTYDGAASRRWMERIAEAFPPERHDPLHATGEPSALPVFIVGMPRSGTTLIEQIVSSHPQVMGAGELSALRLVVEGSGLFPDGMQRLAGEARGALFRQLGQAYLSRVAPLAQGRARLVDKMPSNFLYARLIPLILPGARIIHARRDPVDTCLSCYTKLFAGEQQFAYDQAELGALYRGYARLMAHWRAVLPPGCFIEVDYEAVVDDLEGEARRLIDFLDLPWNPACLHFHDNRRVVRTASVNQVRQPIYTTSKGRWQAYADYLGPLLEALGVEAP”: the protein production entry is “failed”.

For the sequence “MLQGKVSVIVPAYNAARLLERCVRSITGQTYPALEVIVVDDGSKDDTGKIADQLAAEDSRIRVVHKTNGGVSAARNDALKLVEGEWITFVDSDDYLEPDFLRSLLDGEVADLVIGGYHTVGANEIPSANYPTDTAHSPEAIKRALEARLTDMTFLCPWGKLFRTSLVRSLRLIFNTEMKVGEDVVFVWSYLAHCSSLAFKQGQGYDYYTEPGADFKYALDETVSLQTIERILGVLDGLKRNFGMDTEHARCHVLNYYIWLFKLYVNRNYLLRDLARMKNFFYYPLILDYYKTYRRTSKDKLLVYLLLKLRLSGVLYLMIKLYYLEHHHHHH”, the protein production result is listed as “not failed”. Then “MILKTLRNIFITIVVIAIIVIGGLFGLNAYSNQHPNNHSINDWNKLNPLAPTYEYYVKTQKPSKVEVVDKEKDFYIYHYNQTGYTKDGKSKKIEYTASKKLKQNHYLVVREKSHTIQSFEEVKKSKIPTKAKEKL”, with “failed”; and “MVSVGGDSVADSTVNQAKQSIRRSESITMERIVSFTLEEVPESIAKLEDKLFSYLLDLEGLASGRQRQTMSGEVGFGVLKAIDDQTIQDRLHW”, with “failed”; and “MGVPEPRPDWSRRLLGQGEAPDPRFTLANERTFLAWVRTALALLGGAIAIETFAGHVLETPLRLWLVAGLMLLSALLSAGACLRWLRVERALRRRRPLPLPALVPLLALGCLVAVLLAGLVLWPRWHG”, with “failed”. Then “MWARTAAWVFGLPETLREICYRRDNVKPVDELQKTIGHRFGDMELLLTAMTHSSWANEQAVPVEHNERLEFLGDAVLELCVSEELFRRFPSAREGDLTRMRSRLVSKPSLEGVARELRLDMSLRLGKGEESQGGRERGSLLSDALEAMLGAVFLDAGYIAAKGVVMRILGPHFPEALVPVRTKDYKSQLQELTQKLFRDRPVYTLLGSSGPEHDKQFDVRVVLPDGTVFEATGPSMKRAEQMAAARAVATLDK”, with “failed”.
